Measured values reported in patent US20240409645A1 (DUALYX, published 2024).
Substitutions are numbered along the chain they refer to.

T1: human IL-2Rβ (human, UniProt P14784 27-240, limits assumed)
T1 construct: Recombinant human IL-2Rβ protein, coated on ELISA plates or immobilized on a CM5 chip; also called hu IL-2R; interleukin 2 receptor β-chain
T1 sequence: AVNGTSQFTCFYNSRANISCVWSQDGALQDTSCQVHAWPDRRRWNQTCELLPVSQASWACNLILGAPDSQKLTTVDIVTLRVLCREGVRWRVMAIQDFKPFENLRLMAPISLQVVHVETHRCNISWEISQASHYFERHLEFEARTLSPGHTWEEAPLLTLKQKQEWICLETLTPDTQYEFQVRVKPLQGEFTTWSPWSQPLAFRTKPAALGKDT

T2: human IL-2Rγ (common cytokine receptor γ-chain) (human, UniProt P31785 23-262, limits assumed)
T2 construct: Recombinant protein coated on the plate or immobilised on a CM5 chip; also called hu IL-2R; CD132
T2 sequence: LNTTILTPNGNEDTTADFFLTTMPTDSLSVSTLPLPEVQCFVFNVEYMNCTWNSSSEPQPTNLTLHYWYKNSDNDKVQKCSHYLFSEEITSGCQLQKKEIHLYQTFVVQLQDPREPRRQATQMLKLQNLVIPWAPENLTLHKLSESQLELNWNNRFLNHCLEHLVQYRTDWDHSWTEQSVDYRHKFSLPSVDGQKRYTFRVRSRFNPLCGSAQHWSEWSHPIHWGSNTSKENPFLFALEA

T3: mouse IL-2Rγ (mouse, UniProt P34902 23-263)
T3 construct: also called mo IL-2R
T3 sequence (looked up): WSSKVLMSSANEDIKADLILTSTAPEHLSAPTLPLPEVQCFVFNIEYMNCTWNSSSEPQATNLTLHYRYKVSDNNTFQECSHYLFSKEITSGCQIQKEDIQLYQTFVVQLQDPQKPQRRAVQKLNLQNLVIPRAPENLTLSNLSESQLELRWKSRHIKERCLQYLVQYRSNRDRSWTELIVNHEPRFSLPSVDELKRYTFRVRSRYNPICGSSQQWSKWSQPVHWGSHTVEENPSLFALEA

B1: FJ1427 P035MP06A08 (VHH)
VHH: EVQLVESGGGLVQAGESLRLSCAASGQYFSTYSMAWFRRTPGKEREFVTIISESGGIKEYVDSVKGRFTVSRDNAKNTVYLQMNSLKPEDTAVYYCAAARDWFARNEYQYDYWGQGTQVTVSS
notes: Soluble VHH in periplasmic extract (P.E.); also called Clone nr
B2: FJ1427_P035MP06B09 (VHH)
VHH: QVQLVESGGGLVQAGGSLRLSCAVSGDVLVRYTMAWFRQAPGKEREFVASVTDSGRTTEYVDSVKGRFTVSRDNAKNTAYLQMNNLKPEDTAVYYCAANTDYFQIRSLDLNTWGQGTQVTVSS
notes: Soluble VHH in periplasmic extract (P.E.); also called Clone nr; 546
B3: FJ1427_P035MP06E04 (VHH)
VHH: B2 VHH with L29F
notes: as for B1
B4: FJ1427_P035MP06C10 (VHH)
VHH: B2 VHH with L29F
notes: Soluble VHH in periplasmic extract (P.E.); also called Clone nr; 555
B5: FJ1427_P035MP06B04 (VHH)
VHH: B2 VHH with L29F
notes: as for B1
B6: FJ1427_P035MP06H03 (VHH)
VHH: B2 VHH with L29F
notes: as for B1
B7: FJ1427_P035MP06G10 (VHH)
VHH: B2 VHH with V24A, L29F, D109N
notes: as for B1
B8: FJ1427_P035MP06D07 (VHH)
VHH: B2 VHH with V24A, L29F, V93I
notes: Soluble VHH in periplasmic extract (P.E.); also called Clone nr; 532
B9: FJ1427_P035MP06C05 (VHH)
VHH: B2 VHH with Q1E, A23V, L29F, E44G, S50V, A79V, L108V, L110N, T112A
notes: as for B1
B10: FJ1427_P035MP06B10 (VHH)
VHH: B2 VHH with V24A, V93I
notes: Soluble VHH in periplasmic extract (P.E.); also called Clone nr; 554
B11: FJ1427_P035MP06F02 (VHH)
VHH: B2 VHH with V5Q, V24A, L29F, E59D, A79V, N85A, R106K
notes: as for B1
B12: FJ1427_P035MP06E06 (VHH)
VHH: B2 VHH with Q1E, S21F, L29F, N77D
notes: Soluble VHH in periplasmic extract (P.E.); also called Clone nr; 525
B13: FJ1427_P035MP06F08 (VHH)
VHH: B2 VHH with V24A, L29F, D109N
notes: Soluble VHH in periplasmic extract (P.E.); also called Clone nr; 542
B14: FJ1427_P035MP06E08 (VHH)
VHH: B2 VHH with Q1E, L29F
notes: as for B1
B15: FJ1427_P035MP06D06 (VHH)
VHH: B2 VHH with Q1E, L29F
notes: as for B1
B16: FJ1427_P035MP06D05 (VHH)
VHH: B2 VHH with L29F, A79V, N85S, D109R, L110A
notes: as for B1
B17: FJ1427_P035MP06D03 (VHH)
VHH: B2 VHH with V24A, L29F, V93I
notes: Soluble VHH in periplasmic extract (P.E.); also called Clone nr; 500
B18: FJ1427_P035MP06H08 (VHH)
VHH: B2 VHH with V24A, L29F, V93I
notes: as for B1
B19: FJ1427_P035MP06H05 (VHH)
VHH: B2 VHH with G10R, A23V, L29F, S50V, D62G, A79V, L108V, L110N, T112A
notes: Soluble VHH in periplasmic extract (P.E.); also called Clone nr; 520
B20: FJ1427_P035MP06H04 (VHH)
VHH: B2 VHH with Q1E, L29F
notes: as for B1
B21: FJ1427_P035MP06C08 (VHH)
VHH: B2 VHH with V24A, L29F, V93I
notes: as for B1
B22: FJ1427_P035MP06F06 (VHH)
VHH: B2 VHH with V24A, L29F, E59D, A79V, D109E, L110F
notes: as for B1
B23: FJ1427_P035MP06G02 (VHH)
VHH: B2 VHH with Q1E, A23V, L29F, G42R, S50V, A79V, L108V, L110N, T112A
notes: as for B1
B24: FJ1427_P035MP06D04 (VHH)
VHH: B2 VHH with V5Q, A23V, L29F, S50V, A79V, L108V, L110N, T112A
notes: as for B1
B25: FJ1427_P035MP06G03 (VHH)
VHH: B2 VHH with A23V, L29F, S50V, A79V, L108V, L110N, T112A
notes: Soluble VHH in periplasmic extract (P.E.); also called Clone nr; 503
B26: FJ1427_P035MP06C06 (VHH)
VHH: B2 VHH with V5Q, A23V, L29F, S50V, A79V, L108V, L110N, T112A
notes: Soluble VHH in periplasmic extract (P.E.); also called Clone nr; 523
B27: FJ1427_P035MP06G08 (VHH)
VHH: B2 VHH with V5Q, V24A, L29F, D109N
notes: Soluble VHH in periplasmic extract (P.E.); also called Clone nr; 543
B28: FJ1427_P035MP06G04 (VHH)
VHH: B2 VHH with V5Q, A23V, L29F, S50V, A79V, L108V, L110N, T112A
notes: as for B1
B29: FJ1427_P035MP06C04 (VHH)
VHH: B2 VHH with V5Q, V24A, L29F, E59D, A79V, D109E, L110F
notes: as for B1
B30: FJ1427_P035MP06F09 (VHH)
VHH: QVQLVESGGGLVQAGGSLTLSCAASGRAFSNYPVGWFRQAPGKEREFVAAITWLSGSTLYADSVEGRFTISRDNAKNTVYLLMSSLKPEDTALYFCAAALKTITRGQNDYSYWGQGTQVTVSS
notes: Soluble VHH in periplasmic extract (P.E.); also called Clone nr; 550
B31: FJ1427_P035MP04D01 (VHH)
VHH: QVQLVESGGGLVQAGGSLRLSCAASGRTLSRYAMGWFRQAPGKEREFVTANSWGGDTYYADSVQGRFTFSRDNAKNTVYLQMNSLQPEDTAVYYCAAAPTSFATTAYSSSNSYAYWGQGTQVTVSS
notes: VHH in periplasmic extract; also called clone nr
B32: 28-MP04D02 (VHH)
VHH: B31 VHH with S109G
notes: VHH in periplasmic extract; also called FJ1427_P035MP04D02; clone nr; 300
B33: 31-MP04E03 (VHH)
VHH: QVQLVESGGGLVQAGGSLRLSCTGYGGAFTGYALGWFRQAPGKEREFVARINWSGSFTYYASSVKGRFTISRDNAKNTMYLQMNNLKPEDTAVYYCAADNPSTLATDYDNWGQGTQVTVSS
notes: VHH in periplasmic extract; also called FJ1427_P035MP04E03; clone nr

target: T1, human IL-2Rβ; assay: P.E. binding ELISA, human IL-2Rβ coated
Protocol: In a binding ELISA, human or mouse IL-2Rα, IL-2Rβ and IL-2Rγ proteins were coated directly on maxisorp microtiter plates overnight at 4° C. Free binding sites were blocked using 4% Marvel in PBS for 1 hour. Next, 1:5 dilution of P.E. in 1% Marvel/PBS were added to wells and incubated for 1 hour. […] Binding specificity was determined based on O.D. at 450 nm values compared to negative controls.

| Binder | OD450 nm (P.E. binding ELISA) [OD450 nm] |
| --- | --- |
| B1 | 0.44 |
| B2 | 0.329 |
| B3 | 0.974 |
| B4 | 0.358 |
| B5 | 0.935 |
| B6 | 0.239 |
| B7 | 1 |
| B8 | 0.957 |
| B9 | 0.58 |
| B10 | 0.264 |
| B11 | 0.278 |
| B12 | 1.45 |
| B13 | 0.343 |
| B14 | 0.359 |
| B15 | 0.289 |
| B16 | 0.304 |
| B17 | 1.02 |
| B18 | 0.313 |
| B19 | 0.59 |
| B20 | 1.02 |
| B21 | 0.297 |
| B22 | 0.224 |
| B23 | 0.677 |
| B24 | 0.189 |
| B25 | 0.267 |
| B26 | 0.255 |
| B27 | 0.255 |
| B28 | 0.213 |
| B29 | 0.187 |
| B30 | 0.564 |

target: T1, human IL-2Rβ; assay: SPR off-rate ranking of P.E., human IL-2Rβ immobilized
Protocol: SPR was performed to determine dissociation rates using Biacore 3000 instrument (GE Healthcare). Briefly, human and mouse IL-2R proteins were immobilized on carboxylmethyl dextran sensor chip (CM5) at approximately 2500 RUs using amine coupling in acetate buffer (GE Healthcare). The VHH-containing P.E. were loaded with a flow rate of 30 uL/min and the off-rates were measured over a 120s period.

| Binder | koff [s⁻¹] |
| --- | --- |
| B1 | 0.000497 |
| B2 | 0.00225 |
| B3 | 0.000198 |
| B4 | 0.000208 |
| B5 | 0.000188 |
| B6 | 0.000196 |
| B7 | 0.000261 |
| B8 | 0.000346 |
| B9 | 0.000751 |
| B10 | 0.00223 |
| B11 | 0.00037 |
| B12 | 0.000241 |
| B13 | 0.000274 |
| B14 | 0.000267 |
| B15 | 0.00029 |
| B16 | 0.000483 |
| B17 | 0.00029 |
| B18 | 0.000349 |
| B19 | 0.000885 |
| B20 | 0.000245 |
| B21 | 0.000335 |
| B22 | 0.000935 |
| B23 | 0.000619 |
| B24 | 0.000621 |
| B25 | 0.000586 |
| B26 | 0.000698 |
| B27 | 0.000286 |
| B28 | 0.000641 |
| B29 | 0.00084 |
| B30 | 0.000147 |

target: T2, human IL-2Rγ (common cytokine receptor …); assay: PE binding ELISA, periplasmic extract on coated protein
In short: (§1)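 Plates were coated overnight at 4° C with human or mouse IL-2R chain protein, and free sites blocked for 1 hour in 4% Marvel in PBS. Periplasmic extracts diluted 1:5 in 1% Marvel/PBS then bound for 1 hour, with specificity assessed from 450 nm absorbance relative to negative controls.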

| Binder | OD (PE binding ELISA) [OD450 nm] |
| --- | --- |
| B31 | 1.02 |
| B32 | 0.782 |

target: T3, mouse IL-2Rγ; assay: as above
In short: as §1

| Binder | OD (PE binding ELISA) [OD450 nm] |
| --- | --- |
| B31 | 0.066 |
| B32 | 0.054 |
| B33 | 0.495 |

target: T2, human IL-2Rγ (common cytokine receptor …); assay: SPR off-rate ranking, periplasmic extract on immobilised protein
In short: (§2)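 Dissociation rates of nanobody (VHH) periplasmic extracts were measured across a 120s window on an amine-coupled carboxymethyl dextran surface bearing about 2500 RUs of receptor; injection flow 30 uL/min.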

| Binder | koff [s⁻¹] |
| --- | --- |
| B31 | 0.00182 |
| B32 | 0.0088 |

target: T3, mouse IL-2Rγ; assay: as above
In short: as §2

| Binder | koff [s⁻¹] |
| --- | --- |
| B31 | 0.113 |
| B32 | 0.319 |
| B33 | 0.283 |
